According to PMC3784471 (PLoS Pathogens, 2013):
Ends that are not written are not given here.

Target: T1, Hendra virus nucleoprotein C-terminal domain N_(TAIL) (residues 401-532) (Hendra virus, UniProt O89339 401-532)
T1 sequence: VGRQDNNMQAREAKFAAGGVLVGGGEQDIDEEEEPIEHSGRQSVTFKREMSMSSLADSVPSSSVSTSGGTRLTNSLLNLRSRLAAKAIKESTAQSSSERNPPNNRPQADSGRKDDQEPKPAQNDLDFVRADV
Experiment: NMR titration; […]) ([…]); 298 K; […], pH 6.0
Settings: both partners purified

B1: Hendra virus phosphoprotein X domain (XD, residues 654-707), 13C,15N labeled, without hexahistidine tag (domain or fragment)
chain: ADDASKDVVRTMIRTHIKDRELRSELMDYLNRAETDEEVQEVANTVNDIIDGNI
modifications: also: 13C,15N labeled
- binding result: binds
